Laboratory results from the supplement of paper PMC7125110.
± gives the standard error. This sample holds only a part of the variants without activity.

B1: glmS ribozyme (parent)
chain: AUAAAAGCGCCAGAACUACAGAAAUGUAGUUGACGAGGAGGAGGUUUAUCGAAUUUUCGGCGGAUGCCUCCAAA

Key:
Conditions in all cases: with glucosamine-6-phosphate
[1] = variants of: B1; experiment: self-cleavage kobs at 40 uM GlcN6P; higher = faster cleavage; RNA array
Outline: (§1)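 Using a hybridised Cy3 probe at 37 °C, barcoded ribozyme variants transcribed in situ by E. coli RNA polymerase on sequenced MiSeq chips were monitored across tiles imaged over ~14 h. The flow contained glucosamine-6-phosphate from 40 μM to 10 mM in HEPES/KCl/Mg(OAc)2 buffer. Signals were normalised to baseline and to non-cleaving reference variants before per-tile medians were fit to one- or two-exponential decays to yield kobs. Weighted Michaelis–Menten fits across concentrations gave kcat and KM.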

[2] = variants of: B1; experiment: self-cleavage kobs at 640 uM GlcN6P; higher = faster cleavage; RNA array
Outline: as §1

[3] = variants of: B1; experiment: self-cleavage kobs at 2500 uM GlcN6P; higher = faster cleavage; RNA array
Outline: as §1

[4] = variants of: B1; experiment: self-cleavage kobs at 10000 uM GlcN6P; higher = faster cleavage; RNA array
Outline: as §1

[5] = variants of: B1; experiment: self-cleavage kobs at 160 uM GlcN6P; higher = faster cleavage; RNA array
Outline: as §1

AUAAAAGCGUCAGAACUACAGAAAUGUAGUUGACGAGGAGGAGGUUUAUCGCAUUUGCGGCGGAUGCCUCCAAA [C10U A52C U57G]
self-cleavage kobs at 40 uM GlcN6P [1]: < 1e-05 s⁻¹ | self-cleavage kobs at 640 uM GlcN6P [2]: < 1e-05 s⁻¹ | self-cleavage kobs at 2500 uM GlcN6P [3]: < 1e-05 s⁻¹ | self-cleavage kobs at 10000 uM GlcN6P [4]: < 1e-05 s⁻¹

AUAAAAGCGCCAGAACUACAGAAAUGUAGUUGACGAGGAGGAGGUGUAUCGAAUUUUUGGCGGAUGCCUCCAAA [U46G C58U]
self-cleavage kobs at 40 uM GlcN6P [1]: < 1e-05 s⁻¹

AUAAAAGCGCCAGAACUACAGAAAUGUAGUUGACGAGGAAGAGGUUUAUCGAAUUUUCGGCGAAUGCCUCCAAA [G40A G63A]
self-cleavage kobs at 40 uM GlcN6P [1]: < 1e-05 s⁻¹ | self-cleavage kobs at 2500 uM GlcN6P [3]: < 1e-05 s⁻¹ | self-cleavage kobs at 10000 uM GlcN6P [4]: < 1e-05 s⁻¹

AUAAAAGCGCCAGAACUACAGAAAUGUAGUUGACGAGCCGGAUGUUUAUCGAAUUUGCGGCGGAUGCCUCUAAA [G38C A39C G43U U57G C71U]
self-cleavage kobs at 40 uM GlcN6P [1]: < 1e-05 s⁻¹ | self-cleavage kobs at 640 uM GlcN6P [2]: < 1e-05 s⁻¹ | self-cleavage kobs at 2500 uM GlcN6P [3]: < 1e-05 s⁻¹ | self-cleavage kobs at 10000 uM GlcN6P [4]: < 1e-05 s⁻¹

AUAAAAGCGUCAGAACUACAGAAAUGUAGUUGACGACGAGGAGUUUUAUCGAAUUUUCGGCGGACGCCUCCAAA [C10U G37C G44U U65C]
self-cleavage kobs at 40 uM GlcN6P [1]: < 1e-05 s⁻¹ | self-cleavage kobs at 160 uM GlcN6P [5]: < 1e-05 s⁻¹ | self-cleavage kobs at 640 uM GlcN6P [2]: < 1e-05 s⁻¹ | self-cleavage kobs at 2500 uM GlcN6P [3]: < 1e-05 s⁻¹

AUAAAAGCGCCAGAACUACAGAAAUGUAGUUGACGAGGAGGAGUUUUAUCGAAUUUUCUGCGGAGGCCUCCAAA [G44U G59U U65G]
self-cleavage kobs at 40 uM GlcN6P [1]: < 1e-05 s⁻¹ | self-cleavage kobs at 2500 uM GlcN6P [3]: < 1e-05 s⁻¹

AUAAAAGCGCCAGAACUACAGAAAUGUAGUUGACGAGGGGGAGGCUUAUCGAAUUUCCGGCGGAUGCCUUUAAA [A39G U45C U57C C70U C71U]
self-cleavage kobs at 40 uM GlcN6P [1]: < 1e-05 s⁻¹

AUAAAAGCGACAGAACUACAGAAAUGUAGUUGACGAGGAGGACGUUUAUCGAAUUUUCGGCGGAUGCCUCCAAA [C10A G43C]
self-cleavage kobs at 40 uM GlcN6P [1]: < 1e-05 s⁻¹ | self-cleavage kobs at 160 uM GlcN6P [5]: < 1e-05 s⁻¹ | self-cleavage kobs at 640 uM GlcN6P [2]: < 1e-05 s⁻¹ | self-cleavage kobs at 10000 uM GlcN6P [4]: < 1e-05 s⁻¹

AUAAAAGCGCCAGAACUACAGAAAUGUAGUUGACGAGGAGGAGGUUCAUCGAAUUUUCGGGGGAUGCCUCUAAA [U47C C61G C71U]
self-cleavage kobs at 40 uM GlcN6P [1]: < 1e-05 s⁻¹ | self-cleavage kobs at 10000 uM GlcN6P [4]: < 1e-05 s⁻¹

AUAAAACCGCCAGAACUACAGAAAUGUAGUUGACGAGGAGGAGGUUUAUCAAAUUAUCGGCGGAUGGAUCCAAA [G7C G51A U56A C67G C68A]
self-cleavage kobs at 40 uM GlcN6P [1]: 0.000619 ± 0.0002 s⁻¹ | self-cleavage kobs at 10000 uM GlcN6P [4]: 7.59e-05 ± 1.5e-05 s⁻¹

AUAAAAGCGCCAGAACUACAGAAAUGUAGUUGACGCGGAGGAGGGUUAUCGAAUUUUCGGCGGACGCCUCCAAA [A36C U45G U65C]
self-cleavage kobs at 40 uM GlcN6P [1]: < 1e-05 s⁻¹ | self-cleavage kobs at 2500 uM GlcN6P [3]: < 1e-05 s⁻¹

AUAAAAGCGCCAGAACUACAGAAAUGUAGUUGACGAGGAAGAGGUUUAUAGAAUUUUCGGCGGAUGCCUGCAAA [G40A C50A C70G]
self-cleavage kobs at 40 uM GlcN6P [1]: < 1e-05 s⁻¹

AUAAAAGCGCCAGAACUACAGAAAUGUAGUUGACGAGCAGGAGGUUUAUCGAAUUUUCGGCGUAUGCCUCCAAA [G38C G63U]
self-cleavage kobs at 40 uM GlcN6P [1]: < 1e-05 s⁻¹

AUAAAAGCGCCAGAACUACAGAAAUGUAGUUGCCGAGGAGGAGGUUUAUCGAAUUUUCGGCGGAUGCAUCCAAA [A33C C68A]
self-cleavage kobs at 40 uM GlcN6P [1]: < 1e-05 s⁻¹ | self-cleavage kobs at 640 uM GlcN6P [2]: < 1e-05 s⁻¹ | self-cleavage kobs at 2500 uM GlcN6P [3]: < 1e-05 s⁻¹ | self-cleavage kobs at 10000 uM GlcN6P [4]: < 1e-05 s⁻¹

AUAAAAGCGCCAGGACUACAGAAAUGUAGUUGACGAGGGGGAGGUUUAUCGAAUUUUCGGCGGAUGCCUCCAAA [A14G A39G]
self-cleavage kobs at 40 uM GlcN6P [1]: 0.004 ± 0.00057 s⁻¹ | self-cleavage kobs at 160 uM GlcN6P [5]: 0.00304 ± 0.00096 s⁻¹ | self-cleavage kobs at 640 uM GlcN6P [2]: 0.0236 ± 0.0054 s⁻¹ | self-cleavage kobs at 10000 uM GlcN6P [4]: 0.138 ± 0.052 s⁻¹

AUAAAAGCGCCAGAACUACAGAAAUGUAGUUGACGAGGAGGAGAUUUAUCGAAUUUUCGGCAGAUGCCUCCAAA [G44A G62A]
self-cleavage kobs at 40 uM GlcN6P [1]: < 1e-05 s⁻¹ | self-cleavage kobs at 160 uM GlcN6P [5]: < 1e-05 s⁻¹ | self-cleavage kobs at 640 uM GlcN6P [2]: < 1e-05 s⁻¹ | self-cleavage kobs at 2500 uM GlcN6P [3]: < 1e-05 s⁻¹ | self-cleavage kobs at 10000 uM GlcN6P [4]: < 1e-05 s⁻¹

AUAAAAGCGCCAGAACUACAGAAAUGUAGUUGACGAGGAGGAGGUUUAUCGAAUUCUCGUCGGAUGCCUCCAAA [U56C G60U]
self-cleavage kobs at 40 uM GlcN6P [1]: < 1e-05 s⁻¹ | self-cleavage kobs at 160 uM GlcN6P [5]: < 1e-05 s⁻¹ | self-cleavage kobs at 640 uM GlcN6P [2]: < 1e-05 s⁻¹ | self-cleavage kobs at 2500 uM GlcN6P [3]: < 1e-05 s⁻¹ | self-cleavage kobs at 10000 uM GlcN6P [4]: < 1e-05 s⁻¹

AUAAAAGCGCCAGAACUACAGAAAUGUAGCUGACGAGGAGGAGGUUUCUCGAAUUUUCGGCGGAUGCCUCCAAA [U30C A48C]
self-cleavage kobs at 40 uM GlcN6P [1]: < 1e-05 s⁻¹ | self-cleavage kobs at 160 uM GlcN6P [5]: < 1e-05 s⁻¹ | self-cleavage kobs at 640 uM GlcN6P [2]: < 1e-05 s⁻¹ | self-cleavage kobs at 2500 uM GlcN6P [3]: < 1e-05 s⁻¹ | self-cleavage kobs at 10000 uM GlcN6P [4]: < 1e-05 s⁻¹

AUAAAAGCGCCAGAACUACAGAAAUGUAGUUGACGAGGAGGAGGUUUAUCGAAUUUUCGACGGAUGUCUCCAAA [G60A C67U]
self-cleavage kobs at 40 uM GlcN6P [1]: < 1e-05 s⁻¹ | self-cleavage kobs at 160 uM GlcN6P [5]: < 1e-05 s⁻¹

AUAAAAGCGCCGGAACUACAGAAAUGUAUUUGACGAGGAGGAGAUUUAUCGAAUUUUCGGCGAAUGCCUCCAAA [A12G G29U G44A G63A]
self-cleavage kobs at 40 uM GlcN6P [1]: < 1e-05 s⁻¹ | self-cleavage kobs at 10000 uM GlcN6P [4]: < 1e-05 s⁻¹

AUAAAAGCGCCAGAACUACAGAAAUGUAGUUGACGGGGAGGAGGUUUCUCGAAUUUUCGGCGGAUGCCUCCAAA [A36G A48C]
self-cleavage kobs at 40 uM GlcN6P [1]: < 1e-05 s⁻¹ | self-cleavage kobs at 160 uM GlcN6P [5]: < 1e-05 s⁻¹ | self-cleavage kobs at 640 uM GlcN6P [2]: < 1e-05 s⁻¹ | self-cleavage kobs at 10000 uM GlcN6P [4]: < 1e-05 s⁻¹

AUAAAAGCGCCAGGACUACAGAAAUGUAGUUGACGAGGAGGAGGUUUAUCCACUUUUCGGCGGAUGCCUCCAAA [A14G G51C A53C]
self-cleavage kobs at 40 uM GlcN6P [1]: < 1e-05 s⁻¹

AUAAAAGCGCCAUAACUACAGAAAUGUAGUUGUCGAGGAGGAGCUUUAUCGAAUUUUCGGCGGAUGCCUCCAAA [G13U A33U G44C]
self-cleavage kobs at 40 uM GlcN6P [1]: < 1e-05 s⁻¹

AUAAAAGCGCCAGAACUACAGAAAUGUAGUUGACGCGGAGGAGGUUUAACGAAUUUUCGGCCGAUGCCUUCAAA [A36C U49A G62C C70U]
self-cleavage kobs at 40 uM GlcN6P [1]: < 1e-05 s⁻¹ | self-cleavage kobs at 10000 uM GlcN6P [4]: < 1e-05 s⁻¹

AUAAAAGCGCCAGAACUACAGAAAUGUAGUUGACGGGGAGGAGGUUUAUCGAAUUUUCGGCGGAUGUCUCCAAA [A36G C67U]
self-cleavage kobs at 40 uM GlcN6P [1]: < 1e-05 s⁻¹

AUAAAAGCGCCAGAAAUACAGAAAUGUAGUUGACGAGGAGGAAGUUUAUCGAAUUUUCGGCGGAUGCCUCCAAA [C16A G43A]
self-cleavage kobs at 40 uM GlcN6P [1]: < 1e-05 s⁻¹

AUAAAUUCGCCAGAUCUACAGAAAUGUAGGUGACGAGGAAGAGGUUUAUCGAAUUUUCGGCGGAUGCCUCCAAA [A6U G7U A15U U30G G40A]
self-cleavage kobs at 40 uM GlcN6P [1]: < 1e-05 s⁻¹ | self-cleavage kobs at 10000 uM GlcN6P [4]: < 1e-05 s⁻¹

AUAAAAGCGCCAGGACUACAGAAAUGUAGUUGACGAGGAGGAGGUUUAUCGAAUCUUCGGCGGAUGCCUUCAAA [A14G U55C C70U]
self-cleavage kobs at 40 uM GlcN6P [1]: 6.64e-05 ± 2.1e-05 s⁻¹ | self-cleavage kobs at 10000 uM GlcN6P [4]: 0.00236 ± 0.00041 s⁻¹

AUAAAAGCGCCAGAACUACAGAAAUGUAGAUGACGAGGAGGUGGUUUAUCGAAUCUUCGGCGGAUGCCUCCAAA [U30A A42U U55C]
self-cleavage kobs at 40 uM GlcN6P [1]: < 1e-05 s⁻¹

AUAAAAGCGCCAGAACUACAGAAAUGUAGUUGACGAGUAGGAGGUUUGUCUAAUUUUCGGCGGAUGCCUCCAAA [G38U A48G G51U]
self-cleavage kobs at 40 uM GlcN6P [1]: < 1e-05 s⁻¹ | self-cleavage kobs at 10000 uM GlcN6P [4]: < 1e-05 s⁻¹

AUAAAAGCGCCAGAGCUACAGAAAUGUAGUUGACGAGGAGGAGGUUUAUUGAAUUUUCGACGGCUGCCUCCAAA [A15G C50U G60A A64C]
self-cleavage kobs at 40 uM GlcN6P [1]: < 1e-05 s⁻¹
